Patent US20170327571A1 (BEIJING BETTERMAB BIOTECHNOLOGY, published 2017)

Experiments:
[1] = target: T1, mouse (Mus musculus) IL17 (moIL17) (mouse (Mus musculus), UniProt Q62386 26-158); test: ELISA, coated IL17 1 ug/ml, HRP-anti-human IgG
T1 construct: also called mIL17; mouse IL17
T1 sequence: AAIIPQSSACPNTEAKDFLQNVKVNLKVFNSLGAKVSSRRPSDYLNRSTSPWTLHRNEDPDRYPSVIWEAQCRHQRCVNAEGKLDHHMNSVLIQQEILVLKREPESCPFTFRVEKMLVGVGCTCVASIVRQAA

[2] = target: T2, Macaca mulatta IL17 (mmIL17) (Macaca mulatta, UniProt Q16552 24-155 (human entry), limits assumed); test: ELISA, coated IL17 1 ug/ml, HRP-anti-human IgG
T2 chain: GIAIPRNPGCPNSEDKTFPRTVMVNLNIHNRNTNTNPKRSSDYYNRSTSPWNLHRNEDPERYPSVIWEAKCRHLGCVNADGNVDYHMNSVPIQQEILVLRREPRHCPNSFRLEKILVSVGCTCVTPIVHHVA

[3] = target: T3, Macaca fascicularis IL17 (mfIL17) (Macaca fascicularis, UniProt Q16552 24-155 (human entry), limits assumed); test: ELISA, coated IL17 1 ug/ml, HRP-anti-human IgG
T3 chain: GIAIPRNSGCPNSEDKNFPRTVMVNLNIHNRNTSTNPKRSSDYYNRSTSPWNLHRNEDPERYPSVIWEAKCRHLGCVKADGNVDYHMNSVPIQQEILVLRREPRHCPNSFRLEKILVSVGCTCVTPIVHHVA

[4] = target: T4, huIL17-his (human IL17 with C-terminal His-tag) (human (homo sapiens), UniProt Q16552 24-155); test: cell-based or functional assay
T4 sequence: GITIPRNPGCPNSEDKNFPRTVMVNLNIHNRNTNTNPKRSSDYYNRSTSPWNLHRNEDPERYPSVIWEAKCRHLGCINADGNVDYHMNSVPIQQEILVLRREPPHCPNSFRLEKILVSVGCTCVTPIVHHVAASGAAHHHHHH

B1: Ixekizumab (antibody, V domains shown)
VH: QVQLVQSGAEVKKPGSSVKVSCKASGYSFTDYHIHWVRQAPGQGLEWMGVINPMYGTTDYNQRFKGRVTITADESTSTAYMELSSLRSEDTAVYYCARYDYFTGTGVYWGQGTLVTVSS
VL: DIVMTQTPLSLSVTPGQPASISCRSSRSLVHSRGNTYLHWYLQKPGQSPQLLIYKVSNRFIGVPDRFSGSGSGTDFTLKISRVEAEDVGVYYCSQSTHLPFTFGQGTKLEIK
B1: no binding [1]; binds [2]; binds [3].

B2: anti-IL17 monoclonal antibody 9GA3 (antibody, V domains shown)
VH: EVQLVESGGGLVQPGGSLRLSCAASGITMDDYWMNWVRQAPGKGLEWVAAINQDGNEKYYVGSVKGRFTISRDNAKNSLYLQMNSLRVEDTAVYYCVRDYYDLISDYYIHYWYFDLWGRGTLVTVSS
VL: DIQMTQSPSSLSASVGDRVTITCRASQNVHNRLTWYQQKPGKAPKLLIYGASNLESGVPSRFSGSGSGTDFTLTISSLQPEDFATYYCQQYNGSPTTFGQGTKVEIK
notes: Recombinant intact antibody
In the case of B2, the “IC50 of inhibiting IL17-induced release of IL6 by HDFa cells (2 nM IL17-His)” value [4] is reported as 120 pM, the binding result [1] is reported as “no binding” and the binding result [2] is reported as “binds”. B2: binds [3].

B3: control antibody Secukinumab (antibody, V domains shown)
VH: EVQLVESGGGLVQPGGSLRLSCAASGFTFSNYWMNWVRQAPGKGLEWVAAINQDGSEKYYVGSVKGRFTISRDNAKNSLYLQMNSLRVEDTAVYYCVRDYYDILTDYYIHYWYFDLWGRGTLVTVSS
VL: not shown
B3: no binding [1].

B4: anti-IL17 monoclonal antibody 9GC5 (antibody, V domains shown)
VH: EVQLVESGGGLVQPGGSLRLSCAASGMSMSDYWMNWVRQAPGKGLEWVAAINQDGDEKYYVGSVKGRFTISRDNAKNSLYLQMNSLRVEDTAVYYCVRDYYDLISDYYIHYWYFDLWGRGTLVTVSS
VL: DIQMTQSPSSLSASVGDRVTITCRASQNVHNRLTWYQQKPGKAPKLLIYGASNLESGVPSRFSGSGSGTDFTLTISSLQPEDFATYYCQQYNGSPTTFGQGTKVEIK
notes: Recombinant intact antibody
B4 was tested, and the “IC50 of inhibiting IL17-induced release of IL6 by HDFa cells (2 nM IL17-His)” value [4] was 70 pM, the binding result [1] was “no binding” and the binding result [2] was “binds”. B4: binds [3].

B5: anti-IL17 monoclonal antibody 9GC2 (antibody, V domains shown)
VH: EVQLVESGGGLVQPGGSLRLSCAASGFTIDNYWMNWVRQAPGKGLEWVAAINQDGNEKYYVGSVKGRFTISRDNAKNSLYLQMNSLRVEDTAVYYCVRDYYDVISDYYIHYWYFDLWGRGTLVTVSS
VL: DIQMTQSPSSLSASVGDRVTITCRASQNVHNRLTWYQQKPGKAPKLLIYGASNLESGVPSRFSGSGSGTDFTLTISSLQPEDFATYYCQQYNGSPTTFGQGTKVEIK
notes: Recombinant intact antibody
With B5 the “IC50 of inhibiting IL17-induced release of IL6 by HDFa cells (2 nM IL17-His)” value [4] was 220 pM, the binding result [1] was “no binding” and the binding result [2] was “binds”. B5: binds [3].
